Test: yeast display, Sf9 membrane polyspecificity reagent, FACS + sequencing; frameworks hold sequencing errors
Procedure, shortened: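 Galactose-induced (36–48 hours) yeast carrying a synthetic nanobody display library were exposed to 10% biotinylated, detergent-solubilized Sf9 membrane reagent at 4 °C for 1 hour. FACS followed streptavidin microbead enrichment, using low and high (top ~1%) gates for expression (anti-HA) and reagent binding (streptavidin). Colony PCR, MiSeq 2 × 250 sequencing and CDR-length filtering followed. Labels for polyreactivity reflect the gate of origin.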

| Sequence | polyreactivity (PSR sort gate) |
| --- | --- |
| QVQLVESGGGLVQAGGSLRLSCAASGFTLSSNPMGWNRQEPGKETELVAAISFNSTSTYYADSVKGRFTISRDNAKNTVYLQMKSLNPEDTAVYYCAADVPRVQSEPEYDYWGQGTQVTVSS | low polyreactivity |
| QVQLVESGGGLVQAGGSLRLSCAASGFTLSWYAMGWYRQAPGKERELVATISRGGITYYADSVKGRFTLSRDNANNTVYVQMNSLKPEDTAVYYCAADYRYGWYRYDYWGQGTQVTVSS | high polyreactivity |
| QVQLVESGGGLVQAGGSLRLSCAASGFTLTLRYAMGWYRQAPGKERELVAAISSGGRTKYADSVKGRFTISRDNAKNTVYLQMNSLKPEDTAVYYCAADLYDPYHVYGYNYWGQGTQVTVSS | low polyreactivity |
| QVQLVESGGGLVQAGGSLRLSCAASGFTLTRNAMGWYRPAPGKERELVAAISWSGGTTYYADSVKGRFTISRDNAKNTVYLQMNSLKPEDTAVYYCAADSVKYGGDYWGQGTQVTVSS | high polyreactivity |
| QVQLVESGGGLVQAGGSLRLSCAASGFTLWLYAMGWSRQAPGKERALVATISYRGDSTYYADSVKGRFTISRDNAKNTVYLQMNSLNPEDTAVYYCARRYTHTGRYYYWGQGTQVTVSS | high polyreactivity |
| QVQLVESGGGLVQAGGSLRLSCAASGFTLWLYAMGWYRQAPGKERELVASISWAGGSTYYADSVKGRFTISRDNAKNTVYLQMNSLKPEDTAVYYCAASRARTRSAYNYSGQGTQVTVSS | high polyreactivity |
| QVQLVESGGGLVQAGGSLRLSCAASGFTLWYNGMGWYRQAPGKERELVATISSRGGGSTYYADSVKGRFTISRDNAKNTVYLQMNSLKPEETAVYYCAADAYYLVPTEGDYWGQGTQVTVSS | low polyreactivity |
| QVQLVESGGGLVQAGGSLRLSCAASGFTLYFYAMGWYRQAPGKERELVATITGSGGSTTYADSVKGRFTISRDNAKNTVYLQMNRLKPEDTAVSYCAAVRVVRASRYQTYHWQPGYCYWGQGTQVTVSS | high polyreactivity |
| QVQLVESGGGLVQAGGSLRLSCAASGFTLYPYAMGWYRPAPGKERELVAAISGSGGSTYYADSVKGRFTISRDNAKNTVYLQMNSLKPEDTAVYYCAARGPQQWWWDDDYWGQGTQVTVSS | high polyreactivity |
| QVQLVESGGGLVQAGGSLRLSCAASGFTLYSYAMGWYRQAPGKERELVAAIRRRGASTYYADSVKGRFTISRDNAKNTVYLQMNSLKPEDTAVYYCAADAKYPDDDYWGQGTQVTVSS | high polyreactivity |
| QVQLVESGGGLVQAGGSLRLSCAASGFTLYSYAMGWYRQAPGKETELVAAITRSGGITYYADSVKGRFTISRDNAKNTVYLQMNSLKPEDTAVYYCAALYLATGVDKAFDSWGQGTQVTVSS | high polyreactivity |
| QVQLVESGGGLVQAGGSLRLSCAASGFTLYTYAMGWYRQAPGKERELVAAISTGGGRTYYADSVKGRFTISRDNAKNTVYLQMNSLKPEDTAVYYCAADSLAKTGGTVGGDYWGQGTQVSVSS | high polyreactivity |
| QVQLVESGGGLVQAGGSLRLSCAASGFTNAMGWYRQAPGKERELVAAISYSGDSTNYADSVKGRFTISRDNAKNTVYLQMNSLKPEDSAVYYCNASSPYDYDWGQGTQVTVSS | low polyreactivity |
| QVQLVESGGGLVQAGGSLRLSCAASGFTSHSYAMGWYRKAPGKERELVAAINGDGGSTYYADSVKGRFTISRDNAKNTLYLQMNSLKPEDTAVYYCAAETAYWYYWGQGSQVTVSS | high polyreactivity |
| QVQLVESGGGLVQAGGSLRLSCAASGFTSSNNAMGWYRQAPGKERELFAAISSSGGRTYYADSVKGRFTISRDNAKNTVYLQMNSLQPEDTAVYFCAATGYVGGIYGHYPRGYWGQGTQVTVSS | high polyreactivity |
| QVQLVESGGGLVQAGGSLRLSCAASGFTSTAYAMGWYRQAPGKERELVAVISSGSSTHYADSVKGRFTISRDNAKNTVYLQMNSLKPEDTAVYYCAARIRTRYFTGFYYWGQGTQVTVSS | high polyreactivity |
| QVQLVESGGGLVQAGGSLRLSCAASGFTSTINAMGWYRQAPGKERELVAAISVSSGSTYYADSVKGRFTISRDNAKNTVYLQMNSLKPEDTAVYYCATGISRDYIYIILRYDYWGQGTQVTVSS | low polyreactivity |
| QVQLVESGGGLVQAGGSLRLSCAASGFTSWQYAMGWYRQAPGKERELVAAISVSGASTNYADSVRGRFTISRDNAKNTVYLQMNSLKPEETAVYYCAAAYVRYPTTRYYYWGQGTQVTVSS | high polyreactivity |
| QVQLVESGGGLVQAGGSLRLSCAASGFTSYGYAMGWYRQAPGKERELVAAISRSGGSTYYADSVKGRFTISRDNAKNTVYLQMNSLKPEDTAVYYCAVAVGREYVYRYYYWGQGTQVTVSS | high polyreactivity |
| QVQLVESGGGLVQAGGSLRLSCAASGFTVVSYAMGWYRQAPGKERELVAAITYSGTSTYYADSVKGRFTISRDKAKNTVYLQMNSLKPEDTAVYYCNADSSWVPIWYEYDYWGHGTQVTVSS | low polyreactivity |
| QVQLVESGGGLVQAGGSLRLSCAASGFTVYYYALGWYRQAPGKERELVAAISDSGGITSYADSVKGRFTISRDNAKNTVYLQMNSLKPEDTAVYYCAYIFGWSSSSKSYYYWGQGTQVTVSS | low polyreactivity |
| QVQLVESGGGLVQAGGSLRLSCAASGFTYDLNAMGWYRQAPGKEREFVATISQSTGSTYYADSVKGRFTISRDNAKNTVYLQMNSLKPEDTAVYYCNKDRPYTLTWGLYEYWGQGTQVTVSS | low polyreactivity |

| Sequence | polyreactivity (PSR sort gate) |
| --- | --- |
| QVQLVESGGGLVQAGGSLRLSCAASGFTYGYYAMGGYRQAPGKERELVAAITNGGRTNYADSVKGRFTISRDNAKNTVYLQMNSLKPEDTAVYYCATDHYWSREGYWGQGTQVTVSS | low polyreactivity |
| QVQLVESGGGLVQAGGSLRLSCAASGFTYVYNAMGWYRQAPGTERELVAAISSGGSTYYADSVKGRFTISRDNAKYTVYLQMNSLKPEDTAVYYCARRSSWFKYEYWGQGTQVTVSS | low polyreactivity |
| QVQLVESGGGLVQAGGSLRLSCAASGFVWNAMGWYRPAPGTERELVAAINWRGGSTNYADSVKGRFTISRDNAKNTVYLQMNSLKPEDTAVYYCAAYFFHYHFYQAAYDYWGQGTQVTVSS | low polyreactivity |
| QVQLVESGGGLVQAGGSLRLSCAASGGIAGNTMGWYRQAPGKERELVAAITRSGGRTYYADSVKGRFTISRDNAKNTVYLQMNSLKPEDTAVYYCAVTGLVRRRYGYWGQGTQVTVSS | high polyreactivity |
| QVQLVESGGGLVQAGGSLRLSCAASGGIFARNVMGWYRQAPGKERELVAAISGSGGSTYYADSVKGRFTISRDNAKNTVYLQMNSLKPEDTAVYYCAARTPGVSVYKDGYWGQGTQVTVSS | low polyreactivity |
| QVQLVESGGGLVQAGGSLRLSCAASGGIFARNVMGWYRQAPGKERELVAAISGSGGSTYYADSVKGRFTISRDNAKNTVYLQMNSLKPEDTAVYYCAARTPGVSVYKDGYWGQGTQVTVTS | low polyreactivity |
| QVQLVESGGGLVQAGGSLRLSCAASGGIFAWNAMGWYRQAPGKERELVAAISGRGGSTTYADSVKGRFTISRDNAKNTVYLQMNSLKPEDTAVYYCAKRWYSGWYKYDYWGQGTQVTVSS | high polyreactivity |
| QVQLVESGGGLVQAGGSLRLSCAASGGIFAYYGMGWYRQAPGKERELVAAIWIGGNTYYADSVKGRFTISRDNAKNTVYLQMNSLKPVDTAVYYCATEGFVYSWLWEFEYWGQGTQVTVSS | low polyreactivity |
| QVQLVESGGGLVQAGGSLRLSCAASGGIFDFYAMGWYRQAPGKERELVAAIRYGGSSTYYADSVKGRFTISRDNAKNTVYLLLNSLKPEDTAVYYCAAEPFSWDTWVDYDYWGQGTQVTVSS | low polyreactivity |
| QVQLVESGGGLVQAGGSLRLSCAASGGIFDTYVMGWYRQAPGKERELVAAITWSGGSTYYADSVKGRFTISRDNAKNTVYLQMNSLKPEDTAVYYCAASGYPIYHDDYWGQGTQVTVSS | low polyreactivity |
| QVQLVESGGGLVQAGGSLRLSCAASGGIFFINAMGWYRQAPGKERELVAAISISDGSTYYADSVKGRFTISRDNAKNTVYLQMNSLKPEDTAVYYCAAEGFDWDSPEMEYWGQGTQVTGSS | low polyreactivity |
| QVQLVESGGGLVQAGGSLRLSCAASGGIFFIYAMGWYRQAPGKERELVAAISWGGGSTYYADSVKGRFTISRDNAKNTFYLQMNSLKPEDTAVYYCAARLYGRGYYYWGQGTQVTVSS | high polyreactivity |
| QVQLVESGGGLVQAGGSLRLSCAASGGIFGKYVMGWYRQAPGKERELVAGISRSAGITYYADSVKGRFTISRDNAKHTVYLQMNSLIPEDTAVYYCNARAWSYPSYHVGYDYWGQGTQVTVSS | high polyreactivity |
| QVQLVESGGGLVQAGGSLRLSCAASGGIFGSYAMGWYRHAPGKERELVADITQSGGRTRYADSVKGRFTISRDNAKNTVYLQMNSLKPEDTAVYYCNAQDVDSGDDYDYWGQGTQVTVSS | low polyreactivity |
| QVQLVESGGGLVQAGGSLRLSCAASGGIFGSYAMGWYRQAPGKERELVAAISGGSTYYADSVKGRFTISRDNAKNTVYLQMNSLKPEDTAVYYCAAGWSVWYQDFDYWGQGTQVTVSS | high polyreactivity |
| QVQLVESGGGLVQAGGSLRLSCAASGGIFGVYAMVWYRQAPGKERELVAAISQSDTSTYYADSVKGRFTISRDNAKNTVYLQMNSLKPEDTAVYYCADEYYLDYYTWFDYWGQGTQVTVSS | high polyreactivity |
| QVQLVESGGGLVQAGGSLRLSCAASGGIFGYYAMGWYRQAPGKERELVAAISISGGRTYYADSVKGRFTISRDNAKNTVYLQMNSLKPEDTAVYYCKAARKVYVRGRGSEMDYWGQGTQVTVSS | low polyreactivity |
| QVQLVESGGGLVQAGGSLRLSCAASGGIFHPNDMGWYRQAPGKESELVAVIDSGDITNYADSVKGRFTISRDNAKNTVYLQMNSLKPEDTAVYYCAADSYSYFTDDHGYWGQGTQVTVSS | high polyreactivity |
| QVQLVESGGGLVQAGGSLRLSCAASGGIFHVYGMGWYRQAPGKERELVAAISYSGASTSYADSVKGRFTISRDNAKNTVYLQMNSLKPEDTAVYYCAAKVYYRRYRSGYDYWGQGTQVTVSS | high polyreactivity |
| QVQLVESGGGLVQAGGSLRLSCAASGGIFHYYAMGWYRQAPGKERELVAAISWNTGSTYYADSVKGRFTISRDNAKNTVYLQINSLKPEDTAVYYCAASSRRSYLPEGQGEYWGQGTQVTVSS | high polyreactivity |
| QVQLVESGGGLVQAGGSLRLSCAASGGIFIDYTMGWYRQAPGKERELVAAITRGGSTYYADSVKGRFTISRDNAKNTVYLQMNSLKPEDTAVYYCAARANTPVGHNRFGYWGQGTQVTVSS | low polyreactivity |

From the nanobody polyreactivity screen of Harvey et al. (2022)
